Like-named read-outs stand apart in the source and are kept apart here. *1 amine or outer side, *2 acyl side, *3 side chain or, on linkers, in order; H or OH if unused. Where a SMILES comes first, the peptide text is derived from it. Where no end group is shown, it is not given here. Side-chain parts run from the residue outwards. [ ]: non-standard residue; d: D form. The star is where a group is joined. X1 = 5‑aminoethylsulfonamide isoquinoline, O=S(=O)(NCCN*)c1cccc2cnccc12; Isoquinoline5sulfonyl = O=S(=O)(c1cccc2cnccc12)*; Ethylenediamine = C(CN[*:2])N[*:1]; hLeu = CC(C)CC[C@H](N)C(=O)O; Nle = CCCC[C@H](N)C(=O)O; Orn = NCCC[C@H](N)C(=O)O; Dab = NCC[C@H](N)C(=O)O; Nva = CCC[C@H](N)C(=O)O; Abu = CC[C@H](N)C(=O)O; Dap = NC[C@H](N)C(=O)O; GlyNH2 = aminoglycine
Legend:
PKB = biological target: T1, PKB (Homo sapiens, UniProt P31749); experiment: PKB in vitro kinase activity assay (soluble His-HA-PKB / SPA bead screening); type: biochemical; set-up: % Inhibition PKB I / % Inhibition PKB II: concentration or dose not given beside the values; conditions: for % Inhibition PKB I / % Inhibition PKB II: plate screening; for PKB-kinase (spa) Assay 1, % inhibition of kinase activity / PKB-kinase (spa) Assay 2, % inhibition of kinase activity / inhibition at 1 µM: 1 μM compound concentration
T1 construct: His; HA; made in house

PKA = biological target: T2, PKA (Bos taurus, UniProt P00517); experiment: In vitro PKA kinase activity assay (kemptide / SPA beads); type: biochemical; set-up: % Inhibition PKA: concentration or dose not given beside the values; conditions: for % Inhibition PKA: plate screening; for PKA-kinase Assay 1, % inhibition of kinase activity / PKA-kinase Assay 2, % inhibition of kinase activity / inhibition at 1 µM: 1 μM compound concentration;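 for all read-outs here: Cell-free assay of purified PKA catalytic subunit phosphorylating the 7-mer kemptide substrate, run in MOPS buffer with magnesium acetate and BSA, with blank wells lacking enzyme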
T2 construct: purchased Promega

[1] = Table 10, accurate IC50 curve, peptide moiety alone, read-out: IC50 μM PKB
[2] = Table 10, accurate IC50 curve, peptide moiety alone, read-out: IC50 μM PKA

T1 sequence (P31749 whole entry, species assumed): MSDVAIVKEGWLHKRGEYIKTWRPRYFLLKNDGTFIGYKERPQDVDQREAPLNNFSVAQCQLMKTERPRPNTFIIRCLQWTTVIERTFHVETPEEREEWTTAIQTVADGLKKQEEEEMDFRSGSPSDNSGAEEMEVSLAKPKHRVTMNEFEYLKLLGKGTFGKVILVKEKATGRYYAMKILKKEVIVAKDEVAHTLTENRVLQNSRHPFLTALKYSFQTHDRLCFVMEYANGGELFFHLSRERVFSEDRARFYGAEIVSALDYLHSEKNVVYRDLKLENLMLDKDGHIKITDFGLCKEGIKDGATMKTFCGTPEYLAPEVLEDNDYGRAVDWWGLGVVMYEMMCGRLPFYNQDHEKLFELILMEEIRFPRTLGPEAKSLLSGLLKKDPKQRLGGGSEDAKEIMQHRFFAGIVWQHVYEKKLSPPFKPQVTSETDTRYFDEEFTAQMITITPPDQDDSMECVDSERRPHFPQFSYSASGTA

Row | Compound | PKB-kinase (spa) Assay 1, % inhibition of kinase activity (PKB; Assay 1) [%] | PKB-kinase (spa) Assay 2, % inhibition of kinase activity (PKB; Assay 2) [%] | PKA-kinase Assay 1, % inhibition of kinase activity (PKA; Assay 1) [%] | PKA-kinase Assay 2, % inhibition of kinase activity (PKA; Assay 2) [%] | other results
1 | 60002-88 (RPRT[Abu][Dap]F) [Compound 60002-88] | – | – | – | – | % Inhibition PKB I (PKB; peptide moiety alone): 40%; % Inhibition PKA (PKA; peptide moiety alone): −3%
2 | 60005-32 (RPRT[GlyNH2]A[hLeu]) [Compound 60005-32] | – | – | – | – | % Inhibition PKB I (PKB; peptide moiety alone): 43%; % Inhibition PKB II (PKB; peptide moiety alone): 44%; % Inhibition PKA (PKA; peptide moiety alone): 4%
3 | 60005-75 (RPR[Nva]S[GlyNH2][hLeu]) [Compound 60005-75] | – | – | – | – | % Inhibition PKB I (PKB; peptide moiety alone): 70%; % Inhibition PKB II (PKB; peptide moiety alone): 70%; % Inhibition PKA (PKA; peptide moiety alone): −4%
4 | 60005-84 (RPR[Nva]TA[hLeu]) [Compound 60005-84] | – | – | – | – | % Inhibition PKB I (PKB; peptide moiety alone): 39%; % Inhibition PKB II (PKB; peptide moiety alone): 48%; % Inhibition PKA (PKA; peptide moiety alone): 7%
5 | 60020-1: Arg-Pro-Arg-Dap-Glu(5-aminoethylsulfonamide isoquinoline)-Dab-Phe (RPR[Dap]E(X1)[Dab]F) | 67 | 65 | 98 | 99 | –
6 | 60020-2: Arg-Pro-Arg-Dap-Glu(5-aminoethylsulfonamide isoquinoline)-Dab-Hol (RPR[Dap]E(X1)[Dab][hLeu]) | 47 | 48 | 94 | 95 | –
7 | 60020-3: Arg-Pro-Arg-Dap-Glu(5-aminoethylsulfonamide isoquinoline)-Orn-Phe (RPR[Dap]E(X1)[Orn]F) | 52 | 60 | 96 | 96 | –
8 | 60020-9: Arg-Pro-Arg-Orn-Glu(5-aminoethylsulfonamide isoquinoline)-Dab-Phe (RPR[Orn]E(X1)[Dab]F) | 71 | 57 | 96 | 97 | –
9 | 60020-10: Arg-Pro-Arg-Orn-Glu(5-aminoethylsulfonamide isoquinoline)-Dab-Hol (RPR[Orn]E(X1)[Dab][hLeu]) | 45 | 48 | 92 | 94 | –
10 | 60020-11: Arg-Pro-Arg-Orn-Glu(5-aminoethylsulfonamide isoquinoline)-Orn-Phe (RPR[Orn]E(X1)[Orn]F) | 58 | 52 | 95 | 96 | –
11 | 60020-33: Arg-Pro-Arg-Dap-Glu(Gly-5-aminoethylsulfonamide isoquinoline)-Dab-Phe (RPR[Dap]E([Gly-X1])[Dab]F) | 63 | 69 | 98 | 98 | –
12 | 60020-34: Arg-Pro-Arg-Dap-Glu(Gly-5-aminoethylsulfonamide isoquinoline)-Dab-Hol (RPR[Dap]E([Gly-X1])[Dab][hLeu]) | 64 | 65 | 97 | 98 | –
13 | 60020-35: Arg-Pro-Arg-Dap-Glu(Gly-5-aminoethylsulfonamide isoquinoline)-Orn-Phe (RPR[Dap]E([Gly-X1])[Orn]F; not fully specified) | 43 | 56 | 95 | 96 | –
14 | 60020-36: Arg-Pro-Arg-Dap-Glu(Gly-5-aminoethylsulfonamide isoquinoline)-Orn-Hol (RPR[Dap]E([Gly-X1])[Orn][hLeu]) | 69 | 71 | 93 | 94 | –
15 | 60020-37: Arg-Pro-Arg-Dap-Glu(Gly-5-aminoethylsulfonamide isoquinoline)-Ala-Phe (RPR[Dap]E([Gly-X1])AF) | 53 | 44 | 98 | 99 | –
16 | 60020-38: Arg-Pro-Arg-Dap-Glu(Gly-5-aminoethylsulfonamide isoquinoline)-Ala-Hol (RPR[Dap]E([Gly-X1])A[hLeu]) | 49 | 49 | 98 | 99 | –
17 | 60020-43: Arg-Pro-Arg-Orn-Glu(Gly-5-aminoethylsulfonamide isoquinoline)-Orn-Phe (RPR[Orn]E([Gly-X1])[Orn]F) | 48 | 62 | 96 | 96 | –
18 | 60020-44: Arg-Pro-Arg-Orn-Glu(Gly-5-aminoethylsulfonamide isoquinoline)-Orn-Hol (RPR[Orn]E([Gly-X1])[Orn][hLeu]) | 54 | 67 | 95 | 95 | –
19 | 60020-49: Arg-Pro-Arg-Abu-Glu(Gly-5-aminoethylsulfonamide isoquinoline)-Dab-Phe (RPR[Abu]E([Gly-X1])[Dab]F) | 66 | 66 | 95 | 95 | –
20 | 60020-50: Arg-Pro-Arg-Abu-Glu(Gly-5-aminoethylsulfonamide isoquinoline)-Dab-Hol (RPR[Abu]E([Gly-X1])[Dab][hLeu]) | 60 | 54 | 97 | 97 | –
21 | 60020-51: Arg-Pro-Arg-Abu-Glu(Gly-5-aminoethylsulfonamide isoquinoline)-Orn-Phe (RPR[Abu]E([Gly-X1])[Orn]F) | 47 | 37 | 94 | 95 | –
22 | 60020-52: Arg-Pro-Arg-Abu-Glu(Gly-5-aminoethylsulfonamide isoquinoline)-Orn-Hol (RPR[Abu]E([Gly-X1])[Orn][hLeu]) | 56 | 53 | 92 | 92 | –
23 | 60020-60: Arg-Pro-Arg-Nle-Glu(Gly-5-aminoethylsulfonamide isoquinoline)-Orn-Hol (RPR[Nle]E([Gly-X1])[Orn][hLeu]) | 59 | 70 | 87 | 89 | –
24 | CCC[C@H](NC(=O)[C@H](CCCNC(=N)N)NC(=O)[C@@H]1CCCN1C(=O)[C@@H](N)CCCNC(=N)N)C(=O)N[C@@H](CO)C(=O)N[C@@H](C)C(=O)N[C@@H](Cc1ccccc1)C(N)=O [60002-38] (H-RPR[Nva]SAF-NH2; N-terminus and C-terminus assumed) | – | – | – | – | IC50 (PKB; [1]): 18 µM; % Inhibition PKB I (PKB; peptide moiety alone): 43%; IC50 (PKA; [2]): 80 µM; % Inhibition PKA (PKA; peptide moiety alone): −2%
25 | CCC[C@H](NC(=O)[C@H](CCCNC(=N)N)NC(=O)[C@@H]1CCCN1C(=O)[C@@H](N)CCCNC(=N)N)C(=O)NCC(=O)N[C@@H](C)C(=O)N[C@@H](CCC(C)C)C(N)=O [60006-18A] (H-RPR[Nva]GA[hLeu]-NH2; N-terminus and C-terminus assumed) | – | – | – | – | IC50 (PKB; [1]): 9.45 µM; % Inhibition PKB I (PKB; peptide moiety alone): 47%; % Inhibition PKB II (PKB; peptide moiety alone): 52%; IC50 (PKA; [2]): > 100 µM; % Inhibition PKA (PKA; peptide moiety alone): 11%
26 | CC(C)CC[C@H](NC(=O)[C@H](CCN)NC(=O)[C@H](CCC(=O)NCC(=O)NCCNS(=O)(=O)c1cccc2cnccc12)NC(=O)[C@H](CCCN)NC(=O)[C@H](CCCNC(=N)N)NC(=O)[C@@H]1CCCN1C(=O)[C@@H](N)CCCNC(=N)N)C(N)=O [60020-42, Arg-Pro-Arg-Orn-Glu-(Gly-5-aminoethylsulfonamide)-Dab-Hol] (H-RPR[Orn]E([Gly-Ethylenediamine-Isoquinoline5sulfonyl])[Dab][hLeu]-NH2) | – | – | – | – | inhibition at 1 µM (PKB; Assay 1, read-out: PKB-kinase (spa) Assay 1, % inhibition of kinase activity): 80%; inhibition at 1 µM (PKB; Assay 2, read-out: PKB-kinase (spa) Assay 2, % inhibition of kinase activity): 86%; IC50 (PKB; Table 1, most preferred compounds, read-out: IC50 PKB): 0.11 µM; inhibition at 1 µM (PKA; Assay 1, read-out: PKA-kinase Assay 1, % inhibition of kinase activity): 99%; inhibition at 1 µM (PKA; Assay 2, read-out: PKA-kinase Assay 2, % inhibition of kinase activity): 99%; IC50 (PKA; Table 1, most preferred compounds, read-out: IC50 PKA): 0.05 µM
27 | RPR[Orn]AT[Orn] [AR 60003-96] | – | – | – | – | Activity PKB (PKB; Table 3, linear 7-mer peptides): Not active
